According to publication PMC6511843:

B1: HA.ELK-1 [not stated] / recombinant core^SRF [not stated] (parent)
chain 1: MDPSVTLWQFLLQLLREQGNGHIISWTSRDGGEFKLVDAEEVARLWGLRKNKTNMNYDKLSRALRYYYDKNIIRKVSGQKFVYKFVSYPEVAGCSTEDCPPQPEVSVTSTMPNVAPAAIHAAPGDTVSGKPGTPKGAGMAGPGGLARSSRNEYMRSGLYSTFTIQSLQPQPPPHPRPAVVLPSAAPAGAAAPPSGSRSTSPSPLEACLEAEEAGLPLQVILTPPEAPNLKSEELNVEPGLGRALPPEVKVEGPKEELEVAGERGFVPETTKAEPEVPPQEGVPARLPAVVMDTAGQAGGHAASSPEISQPQKGRKPRDLELPLSPSLLGGPGPERTPGSGSGSGLQAPGPALTPSLLPTHTLTPVLLTPSSLPPSIHFWSTLSPIAPRSPAKLSFQFPSSGSAQVHIPSISVDGLSTPVVLSPGPQKP
chain 2: SGAKPGKKTRGRVKIKMEFIDNKLRRYTTFSKRKTGIMKKAYELSTLTGTQVLLLVASETGHVYTFATRKLQPMITSETGKALIQTCLNSP

Variants of: B1
Experiment: EMSA (ternary complex with coreSRF on radio-labelled SRE probe), densitometry
Settings: parent: 100, read off a plot
chain 1 MDPSVTLWQFLLQLLREQGNGHIISWTSRDGGEFKLVDAEEVARLWGLRRNRTNMNYDKLSRALRYYYDKNIIRKVSGQKFVYKFVSYPEVAGCSTEDCPPQPEVSVTSTMPNVAPAAIHAAPGDTVSGKPGTPKGAGMAGPGGLARSSRNEYMRSGLYSTFTIQSLQPQPPPHPRPAVVLPSAAPAGAAAPPSGSRSTSPSPLEACLEAEEAGLPLQVILTPPEAPNLKSEELNVEPGLGRALPPEVKVEGPKEELEVAGERGFVPETTKAEPEVPPQEGVPARLPAVVMDTAGQAGGHAASSPEISQPQKGRKPRDLELPLSPSLLGGPGPERTPGSGSGSGLQAPGPALTPSLLPTHTLTPVLLTPSSLPPSIHFWSTLSPIAPRSPAKLSFQFPSSGSAQVHIPSISVDGLSTPVVLSPGPQKP [chain 1 K50R K52R] showed a percent of parent (% of ELK-1 (WT = 100)) of 51. chain 1 MDPSVTLWQFLLQLLREQGNGHIISWTSRDGGEFKLVDAEEVARLWGLRKNKTNMNYDRLSRALRYYYDKNIIRKVSGQKFVYKFVSYPEVAGCSTEDCPPQPEVSVTSTMPNVAPAAIHAAPGDTVSGKPGTPKGAGMAGPGGLARSSRNEYMRSGLYSTFTIQSLQPQPPPHPRPAVVLPSAAPAGAAAPPSGSRSTSPSPLEACLEAEEAGLPLQVILTPPEAPNLKSEELNVEPGLGRALPPEVKVEGPKEELEVAGERGFVPETTKAEPEVPPQEGVPARLPAVVMDTAGQAGGHAASSPEISQPQKGRKPRDLELPLSPSLLGGPGPERTPGSGSGSGLQAPGPALTPSLLPTHTLTPVLLTPSSLPPSIHFWSTLSPIAPRSPAKLSFQFPSSGSAQVHIPSISVDGLSTPVVLSPGPQKP [chain 1 K59R] showed a percent of parent (% of ELK-1 (WT = 100)) of 11.
